# Patent publication US20240360223A1 (DRAGONFLY THERAPEUTICS, published 2024)
# Where “and” joins values, the source holds several entries; their conditions need not be identical. Identical values can stand only once.
# T1: human NKG2D (recombinant mFc-tagged dimer) (human, UniProt P26718 78-216)
# T1 construct: also called hNKG2D
# T1 sequence (looked up): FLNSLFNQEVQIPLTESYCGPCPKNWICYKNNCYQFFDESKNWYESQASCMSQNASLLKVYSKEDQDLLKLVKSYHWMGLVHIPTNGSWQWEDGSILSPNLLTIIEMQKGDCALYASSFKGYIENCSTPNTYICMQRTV
# T2: cynomolgus NKG2D (recombinant mFc-tagged dimer) (cynomolgus, UniProt P61252 78-216)
# T2 construct: also called cyno NKG2D
# T2 sequence (looked up): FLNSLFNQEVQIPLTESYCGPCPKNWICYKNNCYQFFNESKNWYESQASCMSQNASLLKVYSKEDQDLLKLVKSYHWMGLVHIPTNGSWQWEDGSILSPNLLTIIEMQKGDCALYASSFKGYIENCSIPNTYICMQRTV
# T3: human CD32a R131 (human, UniProt P12318 36-218, limits assumed)
# T3 construct: also called FcγRIIa R131
# T3 sequence (looked up): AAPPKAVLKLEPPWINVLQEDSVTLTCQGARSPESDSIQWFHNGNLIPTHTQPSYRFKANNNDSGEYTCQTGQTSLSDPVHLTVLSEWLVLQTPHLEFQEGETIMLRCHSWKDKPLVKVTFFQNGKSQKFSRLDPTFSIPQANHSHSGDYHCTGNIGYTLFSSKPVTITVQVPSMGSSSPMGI
# B1: AB1424/AB1612 F3′ TriNKET (bispecific antibody, human IgG1, kappa)
# chain: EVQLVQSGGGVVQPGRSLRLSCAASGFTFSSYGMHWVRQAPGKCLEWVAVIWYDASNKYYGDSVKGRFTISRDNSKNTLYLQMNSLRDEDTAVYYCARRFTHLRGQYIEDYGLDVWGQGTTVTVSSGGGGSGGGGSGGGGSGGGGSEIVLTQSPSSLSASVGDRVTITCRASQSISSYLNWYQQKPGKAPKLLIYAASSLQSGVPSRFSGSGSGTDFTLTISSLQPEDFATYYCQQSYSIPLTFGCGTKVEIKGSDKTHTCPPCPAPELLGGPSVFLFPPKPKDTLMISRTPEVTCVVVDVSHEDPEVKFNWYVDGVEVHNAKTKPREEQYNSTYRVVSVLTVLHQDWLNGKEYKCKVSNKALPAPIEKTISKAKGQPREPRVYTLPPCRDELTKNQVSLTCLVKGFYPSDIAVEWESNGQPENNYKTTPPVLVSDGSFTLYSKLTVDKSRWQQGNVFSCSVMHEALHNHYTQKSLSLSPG
# heavy: EVQLVESGGGLVKPGGSLRLSCAASGFTFSSYSMNWVRQAPGKGLEWVSSISSSSSYIYYADSVKGRFTISRDNAKNSLYLQMNSLRAEDTAVYYCARGAPIGAAAGWFDPWGQGTLVTVSSASTKGPSVFPLAPSSKSTSGGTAALGCLVKDYFPEPVTVSWNSGALTSGVHTFPAVLQSSGLYSLSSVVTVPSSSLGTQTYICNVNHKPSNTKVDKKVEPKSCDKTHTCPPCPAPELLGGPSVFLFPPKPKDTLMISRTPEVTCVVVDVSHEDPEVKFNWYVDGVEVHNAKTKPREEQYNSTYRVVSVLTVLHQDWLNGKEYKCKVSNKALPAPIEKTISKAKGQPREPQVCTLPPSRDELTENQVSLTCLVKGFYPSDIAVEWESNGQPENNYKTTPPVLDSDGSFFLYSWLTVDKSRWQQGNVFSCSVMHEALHNHYTQKSLSLSPG
# light: DIQMTQSPSSVSASVGDRVTITCRASQGISSWLAWYQQKPGKAPKLLIYAASSLQSGVPSRFSGSGSGTDFTLTISSLQPEDFATYYCQQGVSFPRTFGGGTKVEIKRTVAAPSVFIFPPSDEQLKSGTASVVCLLNNFYPREAKVQWKVDNALQSGNSQESVTEQDSKDSTYSLSSTLTLSKADYEKHKVYACEVTHQGLSSPVTKSFNRGEC
# notes: Chain S: anti-BAFF-R scFv-CH2-CH3; chain H: anti-NKG2D VH-CH1-CH2-CH3; chain L: anti-NKG2D VL-CL; also called AB1612-002
# Columns and labels:
# human FcRn [1] = biological target: T4, human FcRn (human, UniProt P55899 24-297; P61769 21-119); assay: SPR, pH 6.0, steady state; pH 6.0; fourth replicate
# T4 sequence (P55899 24-297 limits assumed, chain 1 of 2): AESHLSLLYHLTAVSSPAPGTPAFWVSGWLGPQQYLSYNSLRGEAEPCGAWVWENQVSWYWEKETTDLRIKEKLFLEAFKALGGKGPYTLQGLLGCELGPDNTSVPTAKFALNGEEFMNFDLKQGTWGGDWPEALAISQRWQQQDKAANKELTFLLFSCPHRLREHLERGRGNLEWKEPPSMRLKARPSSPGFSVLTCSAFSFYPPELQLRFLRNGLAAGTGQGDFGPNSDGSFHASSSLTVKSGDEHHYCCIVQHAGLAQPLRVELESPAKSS
# T4 sequence (P61769 21-119 limits assumed, chain 2 of 2): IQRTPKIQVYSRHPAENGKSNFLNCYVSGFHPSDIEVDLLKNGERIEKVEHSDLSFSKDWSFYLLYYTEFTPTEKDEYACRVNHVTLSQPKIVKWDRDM
# cynomolgus FcRn [2] = biological target: T5, cynomolgus FcRn (cynomolgus, UniProt Q8SPV9 24-297; Q8SPW0 21-119); assay: SPR, pH 6.0, steady state; pH 6.0; second replicate
# T5 construct: also called Cyno FcRn
# T5 sequence (Q8SPV9 24-297 limits assumed, chain 1 of 2): as the sequence (P55899 24-297 limits assumed, chain 1 of 2) above, with N39D, E44Q, G99S, S189G, S190N, L217M, S269T counted along it
# T5 sequence (Q8SPW0 21-119 limits assumed, chain 2 of 2): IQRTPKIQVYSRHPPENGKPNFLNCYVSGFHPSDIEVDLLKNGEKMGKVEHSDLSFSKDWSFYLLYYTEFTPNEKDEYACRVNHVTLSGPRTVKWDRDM
# [3] = biological target: T1, human NKG2D (recombinant mFc-tagged …); assay: SPR, high concentration sample, control
# [4] = biological target: T1, human NKG2D (recombinant mFc-tagged …); assay: SPR, steady state, control
# human CD64 = biological target: T6, human CD64 (human, UniProt P12314 16-288, limits assumed); assay: SPR
# T6 construct: also called FcγRI
# T6 sequence (P12314 16-288 limits assumed): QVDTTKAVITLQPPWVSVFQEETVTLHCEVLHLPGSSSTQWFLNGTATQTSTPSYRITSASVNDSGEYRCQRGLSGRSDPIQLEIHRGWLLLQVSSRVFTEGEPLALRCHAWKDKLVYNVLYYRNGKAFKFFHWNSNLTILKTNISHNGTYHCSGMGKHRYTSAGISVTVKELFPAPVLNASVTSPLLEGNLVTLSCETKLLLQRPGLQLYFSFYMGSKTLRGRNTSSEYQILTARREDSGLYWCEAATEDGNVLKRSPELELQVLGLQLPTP
# Experimental: Binding analyses as described in this Example were performed using SPR, as described in Example 4.
# human CD16a V158 [5] = biological target: T7, human CD16a V158 (human, UniProt P08637 17-208); assay: SPR
# T7 construct: also called hCD16aV; hCD16a V158
# T7 sequence (P08637 17-208 F176V limits assumed): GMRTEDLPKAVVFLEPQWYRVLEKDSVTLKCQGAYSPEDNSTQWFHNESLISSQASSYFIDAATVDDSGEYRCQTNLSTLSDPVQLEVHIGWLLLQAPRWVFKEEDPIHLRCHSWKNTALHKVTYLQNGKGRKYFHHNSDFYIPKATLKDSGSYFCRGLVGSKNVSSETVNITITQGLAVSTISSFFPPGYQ
# [6] = biological target: T8, human BAFF-R expressed on cells (human, UniProt Q96RJ3 1-184); assay: flow cytometry, Raji cells
# T8 construct: Cell surface BAFF-R, endogenous on B cell lines and primary B cells or overexpressed on isogenic CHO cells; also called hBAFF-R; hBAFF-R-CHO
# [7] = biological target: T1, human NKG2D (recombinant mFc-tagged …); assay: SPR, steady state fit
# Excerpt: (§1) NKG2D is a native dimer, therefore recombinant mFc-tagged NKG2D dimer was used for this experiment. Two different fits were utilized to obtain the equilibrium affinity data: steady state affinity fit and kinetic fit.
# [8] = biological target: T2, cynomolgus NKG2D (recombinant …); assay: SPR, steady state fit
# Excerpt: as §1
# [9] = biological target: T9, cynomolgus monkey BAFF-R expressed on cells (cynomolgus monkey); assay: flow cytometry, cynomolgus BAFF-R CHO cells
# T9 construct: whole, on cells; also called cBAFF-R; cynoBAFF-R
# Excerpt: Isogenic cell lines overexpressing human and cynomolgus BAFF-R on the backbone of CHO cell line were designed.
# [10] = biological target: T8, human BAFF-R expressed on cells; assay: flow cytometry, Rs4;11 cells
# cynomolgus CD16 [11] = biological target: T10, cynomolgus CD16 (cynomolgus, UniProt Q8SPW2 17-208, limits assumed); assay: SPR
# T10 construct: also called Cyno CD16; cynomolgus FcγRIII
# T10 sequence (Q8SPW2 17-208 limits assumed): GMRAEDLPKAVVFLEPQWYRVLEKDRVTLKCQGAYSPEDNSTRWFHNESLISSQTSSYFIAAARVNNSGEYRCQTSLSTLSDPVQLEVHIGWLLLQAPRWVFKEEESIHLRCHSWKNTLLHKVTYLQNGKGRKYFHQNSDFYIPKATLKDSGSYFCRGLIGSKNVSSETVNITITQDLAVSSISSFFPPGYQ
# cynomolgus FcRn [12] = biological target: T5, cynomolgus FcRn; assay: SPR, pH 6.0, steady state; pH 6.0; third replicate
# [13] = biological target: T8, human BAFF-R expressed on cells; assay: flow cytometry, human BAFF-R CHO cells
# cynomolgus CD16 [14] = biological target: T10, cynomolgus CD16; assay: SPR, cynomolgus FcγRIII, summary table
# human CD16a V158 [15] = biological target: T7, human CD16a V158; assay: SPR, control
# cynomolgus CD16 [16] = biological target: T10, cynomolgus CD16; assay: SPR, kinetic fit, average
# human CD32a R131 = biological target: T3, human CD32a R131; assay: SPR, steady state, average
# [17] = biological target: T8, human BAFF-R expressed on cells; assay: flow cytometry, RL cells
# [18] = biological target: T8, human BAFF-R expressed on cells; assay: flow cytometry, BJAB cells
# human FcRn [19] = biological target: T4, human FcRn; assay: SPR, pH 6.0, steady state, average; pH 6.0; average of four replicates
# [20] = biological target: T2, cynomolgus NKG2D (recombinant …); assay: SPR, 1:1 kinetic fit
# Excerpt: as §1
# human FcRn [21] = biological target: T4, human FcRn; assay: SPR, pH 6.0, steady state; pH 6.0; third replicate
# [22] = biological target: T8, human BAFF-R expressed on cells; assay: flow cytometry, BJAB cells, control
# [23] = biological target: T8, human BAFF-R expressed on cells; assay: flow cytometry, BJAB cells, after 4 weeks at 40 °C
binder,measurement,setting,value
B1,Kd,human FcRn [1],1100 nM
same,Kd,cynomolgus FcRn [2],1000 nM
same,koff,[3],0.11 s⁻¹
same,kon,[3],220000 M⁻¹ s⁻¹
same,Kd,[4],544 nM
same,Kd,human CD64,2.9 nM and 3.1 nM and 3.4 nM and 3.2 nM
same,koff,human CD64,0.00022 s⁻¹ and 0.00023 s⁻¹
same,kon,human CD64,77000 M⁻¹ s⁻¹ and 73000 M⁻¹ s⁻¹ and 69000 M⁻¹ s⁻¹ and 72000 M⁻¹ s⁻¹
same,koff,human CD16a V158 [5],0.014 s⁻¹ and 0.013 s⁻¹
same,kon,human CD16a V158 [5],110000 M⁻¹ s⁻¹ and 100000 M⁻¹ s⁻¹
same,EC50,[6],0.18 nM
same,Max FOB,[6],10 fold over background
same,Kd,[7],438 nM and 453 nM and 468 nM and 466 nM
same,Kd,[8],501 nM and 516 nM and 535 nM and 530 nM
same,EC50,[9],0.9 nM
same,Max FOB,[9],141 fold over background
same,EC50,[10],0.09 nM
same,Max FOB,[10],4 fold over background
same,koff,cynomolgus CD16 [11],0.02 s⁻¹ and 0.021 s⁻¹
same,kon,cynomolgus CD16 [11],78000 M⁻¹ s⁻¹ and 72000 M⁻¹ s⁻¹
same,Kd,cynomolgus FcRn [12],1000 nM
same,EC50,[13],3.09 nM
same,Kd,cynomolgus CD16 [14],271 nM
same,Kd,human CD16a V158 [15],145 nM
same,koff,human CD16a V158 [15],0.017 s⁻¹
same,kon,human CD16a V158 [15],130000 M⁻¹ s⁻¹
same,Kd,cynomolgus CD16 [16],271 nM
same,Kd,human CD32a R131,1400 nM
same,EC50,[17],0.27 nM
same,Max FOB,[17],8 fold over background
same,EC50,[18],0.37 nM
same,Max FOB,[18],16 fold over background
same,Kd,human FcRn [19],1000 nM
same,Kd,[20],498 nM and 516 nM and 528 nM and 525 nM
same,Kd,human FcRn [21],1100 nM
same,EC50,[22],0.82 nM
same,EC50,[23],0.83 nM
